Measurements reported in US20030171557.

Experiments:
[1] = system: GST-IkBα protein [GST: P08515]
Sequence of GST-IkBα protein [GST: P08515] (P08515 whole entry, looked up): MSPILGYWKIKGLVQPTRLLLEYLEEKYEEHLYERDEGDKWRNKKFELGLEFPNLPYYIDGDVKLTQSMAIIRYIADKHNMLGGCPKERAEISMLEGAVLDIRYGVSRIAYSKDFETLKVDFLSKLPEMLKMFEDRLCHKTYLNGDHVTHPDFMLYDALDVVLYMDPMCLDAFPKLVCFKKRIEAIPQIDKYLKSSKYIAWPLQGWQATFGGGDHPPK

## GST fusion protein with mutant VRK1 protein (Lys 71 replaced by Trp)
[1]
  kinase assay, phosphorylation of substrate ([γ-32P]-ATP, SDS-PAGE, 10 mM Mg): no phosphorylation was observed in reactions with mutant VRK1 carrying mutation in the predicted ATP binding site
Casein (Sigma)
  kinase assay, phosphorylation of substrate ([γ-32P]-ATP, SDS-PAGE, 10 mM Mg): no phosphorylation was observed in reactions with mutant VRK1 carrying mutation in the predicted ATP binding site
